Measurements from article PMC5039643, “Independent multimerization of Latent TGFβ Binding Protein-1 stabilized by cross-linking and enhanced by heparan sulfate” (Scientific Reports, 2016).

Experiments:
[1] = target: Latent TGFβ Binding Protein-1, short form (LTBP1S), full length; experiment: negative stain EM; LTBP1 oligomers imaged by negative stain EM; lengths measured with ImageJ (n = 100 from 32 images)
[2] = target: Latent TGFβ Binding Protein-1, short form (LTBP1S), full length; experiment: SEC-MALS; Superdex 200 or Superose 6; 0.5 ml at ~0.5 mg/ml; 10 mM Tris, 150 mM NaCl, 2 mM CaCl2, pH 7.4; self-association; NT2 monomer also stored overnight at 4 °C in 2 mM calcium and the dimer fraction rerun
[3] = target: the molecule itself; experiment: AUC; ~0.5 mg/ml; 10 mM Tris, 150 mM NaCl, 2 mM CaCl2, pH 7.4; self-association; NT1 also after 12 h pre-incubation with ~10x molar excess of low molecular weight heparin
[4] = target: the molecule itself; experiment: SEC-MALS; Superdex 200 or Superose 6; 0.5 ml at ~0.5 mg/ml; 10 mM Tris, 150 mM NaCl, 2 mM CaCl2, pH 7.4; self-association; NT2 monomer also stored overnight at 4 °C in 2 mM calcium and the dimer fraction rerun

“Latent TGFβ Binding Protein-1, short form (LTBP1S), full length (natural protein)” showed a stoichiometry N [1] of 4 to 5 and a stoichiometry N [2] of 4 to 5.

B1: LTBP1 N-terminal construct NT1 (residues 21–488) (domain or fragment, UniProt Q14766-2 21-488, looked up)
chain: NHTGRIKVVFTPSICKVTCTKGSCQNSCEKGNTTTLISENGHAADTLTATNFRVVICHLPCMNGGQCSSRDKCQCPPNFTGKLCQIPVHGASVPKLYQHSQQPGKALGTHVIHSTHTLPLTVTSQQGVKVKFPPNIVNIHVKHPPEASVQIHQVSRIDGPTGQKTKEAQPGQSQVSYQGLPVQKTQTIHSTYSHQQVIPHVYPVAAKTQLGRCFQETIGSQCGKALPGLSKQEDCCGTVGTSWGFNKCQKCPKKPSYHGYNQMMECLPGYKRVNNTFCQDINECQLQGVCPNGECLNTMGSYRCTCKIGFGPDPTFSSCVPDPPVISEEKGPCYRLVSSGRQCMHPLSVHLTKQLCCCSVGKAWGPHCEKCPLPGTAAFKEICPGGMGYTVSGVHRRRPIHHHVGKGPVFVKPKNTQPVAKSTHPPPLPAKEEPVEALTFSREHGPGVAEPEVATAPPEKEIPSLDQE
notes: LTBP1S residues 21-488; also called NT1 region
In the case of B1, the “stoichiometry N” value [3] is reported as 2.

B2: LTBP1 N-terminal construct NT2 (residues 21–630) (domain or fragment, UniProt Q14766-2 21-630, looked up)
chain: NHTGRIKVVFTPSICKVTCTKGSCQNSCEKGNTTTLISENGHAADTLTATNFRVVICHLPCMNGGQCSSRDKCQCPPNFTGKLCQIPVHGASVPKLYQHSQQPGKALGTHVIHSTHTLPLTVTSQQGVKVKFPPNIVNIHVKHPPEASVQIHQVSRIDGPTGQKTKEAQPGQSQVSYQGLPVQKTQTIHSTYSHQQVIPHVYPVAAKTQLGRCFQETIGSQCGKALPGLSKQEDCCGTVGTSWGFNKCQKCPKKPSYHGYNQMMECLPGYKRVNNTFCQDINECQLQGVCPNGECLNTMGSYRCTCKIGFGPDPTFSSCVPDPPVISEEKGPCYRLVSSGRQCMHPLSVHLTKQLCCCSVGKAWGPHCEKCPLPGTAAFKEICPGGMGYTVSGVHRRRPIHHHVGKGPVFVKPKNTQPVAKSTHPPPLPAKEEPVEALTFSREHGPGVAEPEVATAPPEKEIPSLDQEKTKLEPGQPQLSPGISTIHLHPQFPVVIEKTSPPVPVEVAPEASTSSASQVIAPTQVTEINECTVNPDICGAGHCINLPVRYTCICYEGYRFSEQQRKCVDIDECTQVQHLCSQGRCENTEGSFLCICPAGFMASEEGTNCI
notes: LTBP1S residues 21-630; also called NT2 region
In the case of B2, the “stoichiometry N” value [4] is reported as 2.
